Assay [1] has as its target T1, MBP-tagged D3 (2-720) co-expressed with untagged ASK1 (rice (Oryza sativa) | Arabidopsis, UniProt Q5VMP0 2-720; Q39255 1-160).
T1 sequence (looked up) 1: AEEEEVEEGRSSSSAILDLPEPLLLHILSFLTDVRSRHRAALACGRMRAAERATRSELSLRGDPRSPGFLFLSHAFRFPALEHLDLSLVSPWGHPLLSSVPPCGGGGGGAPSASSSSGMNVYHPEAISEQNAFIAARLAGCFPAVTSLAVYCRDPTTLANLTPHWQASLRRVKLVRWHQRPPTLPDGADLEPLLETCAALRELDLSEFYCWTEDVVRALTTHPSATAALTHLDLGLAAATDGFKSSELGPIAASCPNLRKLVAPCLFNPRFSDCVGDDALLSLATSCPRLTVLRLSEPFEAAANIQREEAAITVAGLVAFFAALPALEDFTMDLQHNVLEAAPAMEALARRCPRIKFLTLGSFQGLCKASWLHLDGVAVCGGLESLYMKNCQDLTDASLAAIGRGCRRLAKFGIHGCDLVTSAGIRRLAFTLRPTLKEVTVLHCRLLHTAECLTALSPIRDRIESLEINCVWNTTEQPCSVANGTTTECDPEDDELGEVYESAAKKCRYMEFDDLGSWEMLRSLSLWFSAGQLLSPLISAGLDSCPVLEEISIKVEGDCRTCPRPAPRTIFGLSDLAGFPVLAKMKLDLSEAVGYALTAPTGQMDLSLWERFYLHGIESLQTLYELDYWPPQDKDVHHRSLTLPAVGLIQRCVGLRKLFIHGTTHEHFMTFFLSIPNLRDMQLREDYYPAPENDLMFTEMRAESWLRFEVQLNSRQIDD
T1 sequence (looked up) 2: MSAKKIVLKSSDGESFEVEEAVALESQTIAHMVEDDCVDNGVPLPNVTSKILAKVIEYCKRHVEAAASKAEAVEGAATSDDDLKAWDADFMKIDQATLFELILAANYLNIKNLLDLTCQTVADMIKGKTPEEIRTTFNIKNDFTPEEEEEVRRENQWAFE
The experiment in a line: pull-down.

The target in assay [2] is T2, MBP-His-D53-D2 (718-1131) (rice (Oryza sativa), UniProt Q2RBP2 718-1131).
T2 sequence (looked up): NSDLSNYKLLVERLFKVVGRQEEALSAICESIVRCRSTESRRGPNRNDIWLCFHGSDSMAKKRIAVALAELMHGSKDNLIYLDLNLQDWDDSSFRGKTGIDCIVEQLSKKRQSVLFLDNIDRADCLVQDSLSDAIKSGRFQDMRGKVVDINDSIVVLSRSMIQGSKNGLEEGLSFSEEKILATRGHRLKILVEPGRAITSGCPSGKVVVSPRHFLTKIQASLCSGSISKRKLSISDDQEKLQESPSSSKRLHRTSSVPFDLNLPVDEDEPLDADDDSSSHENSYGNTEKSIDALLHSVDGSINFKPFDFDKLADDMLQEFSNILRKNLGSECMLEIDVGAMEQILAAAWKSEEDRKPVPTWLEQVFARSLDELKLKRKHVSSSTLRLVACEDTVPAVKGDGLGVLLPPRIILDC
The assay can be described thus: pull-down.

B1: Glutathione-S-transferase (GST)-tagged D14L (receptor, rice (Oryza sativa), UniProt Q10J20 1-271, looked up)
chain: MGIVEEAHNLRVVGEGKRGVIVLAHGFGTDQSVWKHLVPHLVADYRVVLFDTMGAGPTNPDYFDFSRYATLEGYALDLLAILQELRVASCIYVGHSVSAVIGAIASISRPDLFSKLVLLSASPRYLNDVDYYGGFEQEDLDELFEAMGSNYKAWCSGFAPLCVGGDMESVAVQEFSRTLFNIRPDIALSVAQTIFQSDVRSLLPLVTVPCHIVQSTKDLAVPVVVSEYLHKHLGGDSIVEVMPSEGHLPQLSSPDIVIPVLLRHIQHDIAV
As to B1, the binding result in assay [1] was “binds”.

B2: GST-D14 (50-318) (receptor, rice (Oryza sativa), UniProt Q10QA5 50-318, looked up)
chain: APSGAKLLQILNVRVVGSGERVVVLSHGFGTDQSAWSRVLPYLTRDHRVVLYDLVCAGSVNPDHFDFRRYDNLDAYVDDLLAILDALRIPRCAFVGHSVSAMIGILASIRRPDLFAKLVLIGASPRFLNDSDYHGGFELEEIQQVFDAMGANYSAWATGYAPLAVGADVPAAVQEFSRTLFNMRPDISLHVCQTVFKTDLRGVLGMVRAPCVVVQTTRDVSVPASVAAYLKAHLGGRTTVEFLQTEGHLPHLSAPSLLAQVLRRALARY
With B2, the binding result in assay [2] is given as “binds”.
